This data set addresses T1, Cbf5 wild type;Nop10;Gar1 (in complex) (Pyrococcus furiosus;Pyrococcus …, UniProt Q7LWY0;Q8U1R4;Q8U029 1-340;1-60;=MG+2-104, ||internal_change).
T1 sequence 1: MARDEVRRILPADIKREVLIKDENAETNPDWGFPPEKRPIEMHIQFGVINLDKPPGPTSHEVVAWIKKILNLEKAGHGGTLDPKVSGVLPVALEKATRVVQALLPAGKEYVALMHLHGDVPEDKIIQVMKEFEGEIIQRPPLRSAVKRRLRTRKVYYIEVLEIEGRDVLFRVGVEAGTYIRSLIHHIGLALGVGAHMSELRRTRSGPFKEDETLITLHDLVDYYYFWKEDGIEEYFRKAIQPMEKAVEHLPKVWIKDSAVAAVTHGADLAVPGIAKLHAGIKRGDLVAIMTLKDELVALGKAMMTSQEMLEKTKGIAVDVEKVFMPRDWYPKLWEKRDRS
T1 sequence 2: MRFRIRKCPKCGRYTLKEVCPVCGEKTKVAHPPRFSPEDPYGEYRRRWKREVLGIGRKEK
T1 sequence 3: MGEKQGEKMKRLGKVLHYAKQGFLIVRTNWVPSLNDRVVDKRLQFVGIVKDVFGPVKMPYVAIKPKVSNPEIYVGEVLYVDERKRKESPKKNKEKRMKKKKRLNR
Description: filter binding.

B1: H/ACA guide RNA Pf4 (structured_RNA)
RNA: AAUGCCCCUCCCCUCUCACACCCCCGUGAGAAGUGAGCGGGGGGCGGUCGGGGAGGGGACAUCA
Turning to B1, binding was put at a Kd of 21 ± 8 nM.

Source of the values: publication PMC3443816.
